Source: patent US20040087777A1

Experiments:
Test in all cases: rNET
… analog, Residue 3 = K = target: … analog, Residue 3 = K
… analog, Residue 1 = V = target: … analog, Residue 1 = V
… analog, Residue 1 = R = target: … analog, Residue 1 = R
… analog, Residue 1 = H = target: … analog, Residue 1 = H

Substance murine monoclonal antibody 3D6 has an OD (… analog, Residue 3 = K) of 0.053 OD, an OD (… analog, Residue 1 = V) of 0.057 OD and an OD (… analog, Residue 1 = R) of 0.056 OD. The OD (… analog, Residue 1 = H) was 0.054 OD.
